Like-named read-outs stand apart in the source and are kept apart here.
T1: macaca GM-CSF (Macaca mulatta (identical in Macaca …, UniProt Q0MUT8 18-144 (Chlorocebus aethiops entry), limits assumed))
T1 chain: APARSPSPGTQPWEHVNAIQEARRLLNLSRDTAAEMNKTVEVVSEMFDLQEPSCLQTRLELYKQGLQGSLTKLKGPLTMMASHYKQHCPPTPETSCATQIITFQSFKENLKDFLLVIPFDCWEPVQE

B1: humanized parental 4K21 hVH hVL + H93Y (MS100305-A) (antibody, V domains shown)
VH: EVQLVESGGGLVQPGGSLRLSCAASGFAFSAYDMSWVRQAPGKRLELVAYISSGGSSFYYPDTVKGRFTISRDNAKNSLYLQMNSLRAEDTAVYYCTRHLGFDYWGQGTLVTVSS
VL: DIVMTQSPLSLPVTPGEPASISCRSSQSLVNSNGNTYLHWYLQKPGQSPQLLIYKVSNRFSGVPDRFSGSGSGTDFTLKISRVEAEDVGVYYCSQSTYVPPTFGQGTKVEIK
B2: MSB0010595 4K21 (4K21 hVH S56V-T62S hVL S27eY-N28I-H34S-N53R-H93Y) (antibody, V domains shown)
VH: EVQLVESGGGLVQPGGSLRLSCAASGFAFSAYDMSWVRQAPGKRLELVAYISSGGSVFYYPDSVKGRFTISRDNAKNSLYLQMNSLRAEDTAVYYCTRHLGFDYWGQGTLVTVSS
VL: DIVMTQSPLSLPVTPGEPASISCRSSQSLVNYIGNTYLSWYLQKPGQSPQLLIYKVSRRFSGVPDRFSGSGSGTDFTLKISRVEAEDVGVYYCSQSTYVPPTFGQGTKVEIK
B3: MSB0010602 4K21 (4K21 hVH S55K-T62S hVL S27eY-N28I-H34S-N53R-H93Y) (antibody, V domains shown)
VH: EVQLVESGGGLVQPGGSLRLSCAASGFAFSAYDMSWVRQAPGKRLELVAYISSGGKSFYYPDSVKGRFTISRDNAKNSLYLQMNSLRAEDTAVYYCTRHLGFDYWGQGTLVTVSS
VL: DIVMTQSPLSLPVTPGEPASISCRSSQSLVNYIGNTYLSWYLQKPGQSPQLLIYKVSRRFSGVPDRFSGSGSGTDFTLKISRVEAEDVGVYYCSQSTYVPPTFGQGTKVEIK
notes: IgG
B4: MSB0010603 4K21 (4K21 hVH S56V-T62S hVL N28I-H34S-N53R-H93Y) (antibody, V domains shown)
VH: EVQLVESGGGLVQPGGSLRLSCAASGFAFSAYDMSWVRQAPGKRLELVAYISSGGSVFYYPDSVKGRFTISRDNAKNSLYLQMNSLRAEDTAVYYCTRHLGFDYWGQGTLVTVSS
VL: DIVMTQSPLSLPVTPGEPASISCRSSQSLVNSIGNTYLSWYLQKPGQSPQLLIYKVSRRFSGVPDRFSGSGSGTDFTLKISRVEAEDVGVYYCSQSTYVPPTFGQGTKVEIK
notes: IgG

Assays:
human GM-CSF I117 [1] = biological target: T2, human GM-CSF I117 (human, UniProt P04141 18-144); assay: cell-based or functional assay
human GM-CSF T117 [2] = biological target: T3, human GM-CSF T117 (human, UniProt P04141 18-144); assay: cell-based or functional assay
macaca GM-CSF [3] = biological target: T1, macaca GM-CSF; assay: cell-based or functional assay
human GM-CSF I117 [4] = biological target: T2, human GM-CSF I117; assay: cell-based or functional assay; remark: listed apart in the source
Target sequence in this assay (P04141 18-144 limits assumed): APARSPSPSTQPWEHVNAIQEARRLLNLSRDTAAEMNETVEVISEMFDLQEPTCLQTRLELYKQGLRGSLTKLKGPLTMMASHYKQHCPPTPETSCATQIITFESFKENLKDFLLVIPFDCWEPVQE

human GM-CSF T117 [5] = biological target: T3, human GM-CSF T117; assay: cell-based or functional assay; remark: listed apart in the source
Target sequence in this assay (P04141 18-144 I117T limits assumed): as the sequence (P04141 18-144 limits assumed) above, with I100T counted along it

macaca GM-CSF [6] = biological target: T1, macaca GM-CSF; assay: cell-based or functional assay
human GM-CSF I117 [7] = biological target: T2, human GM-CSF I117; assay: cell-based or functional assay; remark: listed apart in the source
human GM-CSF T117 [8] = biological target: T3, human GM-CSF T117; assay: cell-based or functional assay; remark: listed apart in the source
macaca GM-CSF [9] = biological target: T1, macaca GM-CSF; assay: cell-based or functional assay
human GM-CSF A117 mutant = biological target: T4, human GM-CSF A117 mutant (human, UniProt P04141 18-144); assay: competition ELISA: antibody on coated wild-type human GM-CSF, competitor soluble human GM-CSF A117; single condition, competitor concentration not shown
T4 construct: also called hGM-CSF A117; A117 protein

Binder	Fold improvement of 4K21 H93Y alone on I117 (IC50, TF-1 proliferation) (human GM-CSF I117 [4]) [fold]	Fold improvement of humanized parental 4K21 on I117 (IC50, TF-1 proliferation) (human GM-CSF I117 [4]) [fold]	IC50, inhibition of GM-CSF induced TF-1 proliferation (32 pM GM-CSF) (human GM-CSF I117 [4]) [pM]	Fold human T117/I117 (IC50, TF-1 proliferation) (human GM-CSF T117 [5]) [fold]	Fold improvement of 4K21 H93Y alone on T117 (IC50, TF-1 proliferation) (human GM-CSF T117 [5]) [fold]	Fold improvement of humanized parental 4K21 on T117 (IC50, TF-1 proliferation) (human GM-CSF T117 [5]) [fold]	IC50, inhibition of GM-CSF induced TF-1 proliferation (32 pM GM-CSF) (human GM-CSF T117 [5]) [pM]	Fold improvement of 4K21 H93Y alone on macaca (IC50, TF-1 proliferation) (macaca GM-CSF [6]) [fold]	Fold improvement of humanized parental 4K21 on macaca (IC50, TF-1 proliferation) (macaca GM-CSF [6]) [fold]	Fold macaca/human I117 (IC50, TF-1 proliferation) (macaca GM-CSF [6]) [fold]	IC50, inhibition of GM-CSF induced TF-1 proliferation (32 pM GM-CSF) (macaca GM-CSF [6]) [pM]	binding result (human GM-CSF A117 mutant)	also measured
B1	1	4.1	30	5.8	1	8	172	1	8	3.2	96	–	Fold improvement of humanized parental 4K21 (IC50, TF-1 proliferation) (human GM-CSF I117 [1]): 2.3 fold; IC50, inhibition of GM-CSF induced TF-1 proliferation (32 pM GM-CSF) (human GM-CSF I117 [1]): 42 pM; Fold human T117/I117 (IC50, TF-1 proliferation) (human GM-CSF T117 [2]): 3.7 fold; Fold improvement of humanized parental 4K21 (IC50, TF-1 proliferation) (human GM-CSF T117 [2]): 6 fold; IC50, inhibition of GM-CSF induced TF-1 proliferation (32 pM GM-CSF) (human GM-CSF T117 [2]): 154 pM; Fold improvement of humanized parental 4K21 (IC50, TF-1 proliferation) (macaca GM-CSF [3]): 5 fold; Fold macaca/human I117 (IC50, TF-1 proliferation) (macaca GM-CSF [3]): 2.6 fold; IC50, inhibition of GM-CSF induced TF-1 proliferation (32 pM GM-CSF) (macaca GM-CSF [3]): 111 pM
B2	0.8	3.2	37	1.2	3.7	30	46	2.2	18	1.2	44	–	–
B3	1.5	6	20	1.7	5	41	34	4	33	1.2	24	binds	IC50, inhibition of GM-CSF induced IL-8 secretion in U937 cells (65 pM GM-CSF) (human GM-CSF I117 [7]): 267 pM; IC50, inhibition of GM-CSF induced IL-8 secretion in U937 cells (65 pM GM-CSF) (human GM-CSF T117 [8]): 177 pM; IC50, inhibition of GM-CSF induced IL-8 secretion in U937 cells (65 pM GM-CSF) (macaca GM-CSF [9]): 232 pM
B4	0.8	3.1	39	0.9	5.1	42	34	1.2	10	2.1	82	binds	–

Source: patent US20140065163A1 (MERCK SERONO S A, published 2014)
